Literature values as cited in publication PMC8281132.

Biological target: CD155 (Homo sapiens) (UniProt P15151)

- Kd: 2 nM
Substance: TIGIT (from UniProt Q495A1)
